Assay results published in patent US20160251440A1 (Ablynx, published 2016).

What was measured:
[1] = target: T1, human IL12Rβ1, cell-expressed (human, UniProt P42701 24-662); experiment: cell-based or functional assay
[2] = target: T1, human IL12Rβ1, cell-expressed; experiment: cell-based or functional assay; remark: listed apart in the source
[3] = target: T2, human IL12Rβ1 extracellular domain Fc-fusion (human, UniProt P42701 24-545); experiment: competition ELISA, coated IL-12 + IL12Rβ1-Fc
T2 construct: extracellular domain; bought; also called IL12Rβ1-Fc; hIL-12Rβ1-Fc; not shown: Fc part, captured by anti-hIgG

[4] = target: T2, human IL12Rβ1 extracellular domain …; experiment: competition ELISA, coated IL-23 + IL12Rβ1-Fc
[5] = target: T2, human IL12Rβ1 extracellular domain …; experiment: competition ELISA, ratio to monovalent IL12Rb1#30
[6] = target: T2, human IL12Rβ1 extracellular domain …; experiment: competition ELISA, ratio to monovalent IL12Rb1#30; remark: listed apart in the source
[7] = target: T3, human CD4, cell-expressed (human, UniProt P01730 26-458); experiment: flow cytometry on MOLM-13 cells (CD4, no IL12R or IL23R), lower left panel
T3 construct: whole, on cells

[8] = target: T3, human CD4, cell-expressed; experiment: flow cytometry on activated T cells of donor D838 (very high CD4, moderate IL12R), upper right panel
[9] = target: T2, human IL12Rβ1 extracellular domain …; experiment: competition ELISA, ratio to monovalent IL12Rb1#31
[10] = target: T2, human IL12Rβ1 extracellular domain …; experiment: competition ELISA, ratio to monovalent IL12Rb1#31; remark: listed apart in the source

IC50, IFNγ release, PBMC D840 [1] [nM] | IC50, IFNγ release, T cells D839 [1] [nM] | fold ctrl, IFNγ release, PBMC D840 [1] [fold] | fold ctrl, IFNγ release, T cells D839 [1] [fold] | IC50, IL-17 release, PBMC D840 [2] [nM] | fold ctrl, IL-17 release [2] [fold] | IC50 [3] [nM] | IC50 [4] [nM] | fold ctrl [5] [fold] | fold ctrl [6] [fold] | EC50 (read off the curve) [7] [nM] | EC50 (read off the curve) [8] [nM] | fold ctrl [9] [fold] | fold ctrl [10] [fold] | Binder
0.45 | 0.29 | 38 | 552 | 0.016 | 875 | 6.2 | 3 | 0.6 | 0.5 | ~1 | ~1 | – | – | IL12Rb1#30-35GS-CD4#8 (bispecific antibody, also called BI#46; T023200046) EVQLVESGGGLVQTGGSLRLSCAASGRTPRLVAMGWFRQTPGKEREFVGEIILSKGFTYYADSVKGRFTISRVNAKNTITMYLQMNSLKSEDTAVYYCAGRQNWSGSPARTNEYEYWGQGTLVTVSSGGGGSGGGGSGGGGSGGGGSGGGGSGGGGSGGGGSEVQLVESGGGSVQPGGSLTLSCGTSGRTFNVMGWFRQAPGKEREFVAAVRWSSTGIYYTQYADSVKSRFTISRDNAKNTVYLEMNSLKPEDTAVYYCAADTYNSNPARWDGYDFRGQGTLVTVSS
1.9 | 4.1 | 41 | – | 0.23 | 565 | 24 | 13 | – | – | ~1 | ~1 | 0.9 | 0.8 | IL12Rb1#31-35GS-CD4#8 (bispecific antibody, also called BI#47; T023200047) EVQLVESGGGLVQTGGSLRLSCAASGRTPSIIAMGWFRQTPGKEREFVGEIILSKGFTYYADSVKGRFTISRANAKNTITMYLQMNSLKSEDTAVYYCAARQNWSGNPTRTNEYEYWGQGTLVTVSSGGGGSGGGGSGGGGSGGGGSGGGGSGGGGSGGGGSEVQLVESGGGSVQPGGSLTLSCGTSGRTFNVMGWFRQAPGKEREFVAAVRWSSTGIYYTQYADSVKSRFTISRDNAKNTVYLEMNSLKPEDTAVYYCAADTYNSNPARWDGYDFRGQGTLVTVSS
0.36 | 0.28 | 47 | 429 | 0.035 | 1630 | 7.3 | 3.6 | 0.5 | 0.4 | ~1 | ~1 | – | – | CD4#8-35GS-IL12Rb1#30 (bispecific antibody, also called BI#40; T023200040) EVQLVESGGGSVQPGGSLTLSCGTSGRTFNVMGWFRQAPGKEREFVAAVRWSSTGIYYTQYADSVKSRFTISRDNAKNTVYLEMNSLKPEDTAVYYCAADTYNSNPARWDGYDFRGQGTLVTVSSGGGGSGGGGSGGGGSGGGGSGGGGSGGGGSGGGGSEVQLVESGGGLVQTGGSLRLSCAASGRTPRLVAMGWFRQTPGKEREFVGEIILSKGFTYYADSVKGRFTISRVNAKNTITMYLQMNSLKSEDTAVYYCAGRQNWSGSPARTNEYEYWGQGTLVTVSS
2.2 | 1.7 | 50 | – | 0.17 | 1710 | 28 | 15 | – | – | ~1 | ~1 | 0.8 | 0.7 | CD4#8-35GS-IL12Rb1#31 (bispecific antibody, also called BI#41; T023200041) EVQLVESGGGSVQPGGSLTLSCGTSGRTFNVMGWFRQAPGKEREFVAAVRWSSTGIYYTQYADSVKSRFTISRDNAKNTVYLEMNSLKPEDTAVYYCAADTYNSNPARWDGYDFRGQGTLVTVSSGGGGSGGGGSGGGGSGGGGSGGGGSGGGGSGGGGSEVQLVESGGGLVQTGGSLRLSCAASGRTPSIIAMGWFRQTPGKEREFVGEIILSKGFTYYADSVKGRFTISRANAKNTITMYLQMNSLKSEDTAVYYCAARQNWSGNPTRTNEYEYWGQGTLVTVSS
